One block for each binder: values may come before it.
B2: chloroplast ribosomal protein uS5c (natural protein, UniProt Q9ST69 56-308, looked up)
chain: CIKKDDIDITFFEQDNPDEEITFDPPEKPEGYIPPRAVDEPPFESEEEIALAYEELYGAAYSGESLLGNDVYAMDSKIKKATGFGSKSKKEKIRDGFEENVVQVRRVTKVVKGGKHMRFRAIVVVGDKKGQVGVGVGKAKEVVSAVQKAAVDARRNIITVPMTKYLTFPHRNEADYGAARVMLRPAAPGTGVIAGGAVRTVLEMAGVENALGKQLGSNNALNNARATIVAVQTMRQFSDVARDRGIPMEELWK
B5: chloroplast ribosomal protein bL21c (natural protein, UniProt P24613 56-256, looked up)
chain: AKRRRFQEIPEELKAEFEEFQRPPNQKPQLSDVLPDDFQAPEPGTPEYNDIINQFLPKKGPPPPREEIFAVVVIGSRQYIVIPGRWIYTQRLKGATVNDKIVLNKVLLVGTKASTYIGTPIVTNAAVHAVVEEQLLDDKVIVFKYKKKKNYRRNIGHRQPITRIKITGITGYEDYPASTLEAEVEAKEEAEAEAEAEAVPV

Experiments:
Experiment in all cases: cryo-EM structure
[1] = target: B5
[2] = target: T1, chloroplast ribosomal protein bL20c (spinach (Spinacia oleracea) (endogenous …, UniProt P28803 1-128))
T1 sequence (looked up): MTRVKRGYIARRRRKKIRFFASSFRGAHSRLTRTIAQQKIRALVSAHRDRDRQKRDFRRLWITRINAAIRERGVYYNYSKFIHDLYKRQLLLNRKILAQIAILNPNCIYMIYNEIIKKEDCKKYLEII

[3] = target: T2, chloroplast ribosomal protein bS1c (spinach (Spinacia oleracea) (endogenous …, UniProt P29344 42-411))
T2 sequence (looked up): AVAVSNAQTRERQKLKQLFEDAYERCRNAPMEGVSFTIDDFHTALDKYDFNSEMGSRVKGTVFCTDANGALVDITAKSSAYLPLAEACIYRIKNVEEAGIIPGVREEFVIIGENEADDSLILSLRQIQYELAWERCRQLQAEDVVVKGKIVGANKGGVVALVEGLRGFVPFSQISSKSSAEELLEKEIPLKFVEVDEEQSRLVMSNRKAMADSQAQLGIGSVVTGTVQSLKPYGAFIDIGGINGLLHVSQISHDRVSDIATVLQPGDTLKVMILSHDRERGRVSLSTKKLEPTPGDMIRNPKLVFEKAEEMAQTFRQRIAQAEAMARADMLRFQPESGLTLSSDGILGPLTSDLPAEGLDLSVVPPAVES

[4] = target: T3, chloroplast ribosomal protein uS13c (spinach (Spinacia oleracea) (endogenous …, UniProt P82163 48-172))
T3 sequence (looked up): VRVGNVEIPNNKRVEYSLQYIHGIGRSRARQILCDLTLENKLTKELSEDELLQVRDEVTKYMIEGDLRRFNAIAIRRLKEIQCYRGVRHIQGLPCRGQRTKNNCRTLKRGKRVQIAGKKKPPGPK

[5] = target: B2
[6] = target: T4, chloroplast ribosomal protein uL23c (spinach (Spinacia oleracea) (endogenous …, UniProt Q9LWB5 77-198))
T4 sequence (looked up): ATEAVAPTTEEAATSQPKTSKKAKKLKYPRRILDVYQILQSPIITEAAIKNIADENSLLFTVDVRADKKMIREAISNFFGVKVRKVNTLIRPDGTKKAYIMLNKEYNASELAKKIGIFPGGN

[7] = target: T5, chloroplast ribosomal protein uL13c (spinach (Spinacia oleracea) (endogenous …, UniProt P12629 48-250))
T5 sequence (looked up): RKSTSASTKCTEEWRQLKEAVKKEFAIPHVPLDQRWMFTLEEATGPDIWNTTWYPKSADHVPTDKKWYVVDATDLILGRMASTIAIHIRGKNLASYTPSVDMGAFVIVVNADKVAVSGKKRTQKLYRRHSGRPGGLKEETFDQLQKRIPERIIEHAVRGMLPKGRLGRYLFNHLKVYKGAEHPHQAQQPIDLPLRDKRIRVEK

binding result [6]: binds
B4: chloroplast ribosomal protein uL29c (natural protein, UniProt P82248 59-168, looked up)
chain: VKKEDELKELRTKTNEQLNEEILQLKGELFMLRLQRSARENFKPSDFGRMRKRVARMLTVKREREIEQGVGKRLSRKLDKAWKRSIVVRPPPSLKKLQEKATAEAEAEKA

binding result [3]: binds
binding result [5]: binds
B6: chloroplast ribosomal protein uS2c (natural protein, UniProt P08242 1-236, looked up)
chain: MTRRYWNINLEEMMEAGVHFGHGTRKWNPRMSPYISAKCKGIHIINLTRTARFLSEACDLVFDASSRGKQFLIVGTKNKAADSVARAAIRARCHYVNKKWLGGMLTNWSTTETRLHKFRDLRMEQTAGRLARLPKRDAAVVKRQLSHLQTYLGGIKYMTGLPDIVIIVDQQEEYTALRECITLGIPTICLIDTNCNPDLADISIPANDDAIASIRLILTKLVFAICEGRSSYIRNP

binding result [7]: binds
B7: chloroplast ribosomal protein uL22c (natural protein, UniProt P09594 1-199, looked up)
chain: MGFFKKKEKKAEFDVFRLYGLHHPEPGKCDEITTRGYSISMSVDKARRVIDQIRGRSYAETLMILELMPYRACYPIFKLIYSAAANASHNKQFNKANLIISKAEVNKGITLKKVKPRARGRSYMIKRPTCHITIVLRDITHFDSYDKFLESLTPKKLIALLGLMSTGRRRELLCGRFRENHKIKSFLYKIALFKRYEVM

More lines, now with the values behind:

B1: plastid-specific ribosomal protein cL38 (natural protein, UniProt P82411 48-116, looked up)
chain: SSRPQKKGTAHHMKTRPKKTARWDIKRGPAVYPPLPPLPAEWTIVSSAVDEADSSSSTTSSSAEIAQSA
binding result [1]: binds
binding result [2]: binds

Binder: B2
binding result [3]: binds

Binder: GRGDRKTAKGKRFNHSFGNARPKNKNKGRGPPKAPIFPKGDPSQKED (natural protein, UniProt P47910 55-101, looked up) [plastid-specific ribosomal protein bTHXc]
binding result [4]: binds

B3: chloroplast ribosomal protein uS3c (natural protein, UniProt P09595 1-218, looked up)
chain: MGQKINPLGFRLGTTQSHYSLWFSQPKNYAEGLQEDQKIRDCIKNYVQKNTKTSSGVEGIARIEIQKRIDLIQVIIHMGFPKLLIENRPQGVEDLKINVQKELNCVNRKLNIAITRIAKPYGDPNILAEFIAGQLKSRVSFRKAMKKAIELTEQADTKGIQIQIAGRIDGKEIARIEWIREGRVPLQTIRAKIDYCAYTVRTIYGVLGIKIWIFMGEE
binding result [5]: binds

Binder: B5
binding result [7]: binds
